Test [1] has as its target PD-1 on tumor infiltrating lymphocytes (human) (UniProt Q15116). Description: flow cytometry of tumor digest H3046 stained with anti-PD-1 clone EH12.2H7; percent of CD3+ cells stained PD-1+. (In general: A flow cytometer gives signals particle by particle.)
Test [2] shares this target. Briefly: flow cytometry of tumor digest M1156 stained with anti-PD-1 clone EH12.2H7; percent of CD3+ cells stained PD-1+.
Test [3] has the same target. Description: flow cytometry of tumor digest OV8074 stained with anti-PD-1 clone EH12.2H7; percent of CD3+ cells stained PD-1+.

UniProt Q15116, sequence (Q15116 25-288): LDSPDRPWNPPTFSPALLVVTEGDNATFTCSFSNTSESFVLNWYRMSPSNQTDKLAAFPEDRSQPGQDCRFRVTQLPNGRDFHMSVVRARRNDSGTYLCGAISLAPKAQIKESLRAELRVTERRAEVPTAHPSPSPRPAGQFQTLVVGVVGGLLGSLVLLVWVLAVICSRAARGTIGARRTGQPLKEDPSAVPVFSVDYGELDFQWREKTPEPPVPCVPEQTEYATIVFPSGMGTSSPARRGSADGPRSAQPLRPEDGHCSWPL

B1: anti-PD-1 antibody clone EH12.2H7 (antibody, from another filing, V domains shown)
VH: QVQLQQSGAELAKPGASVQMSCKASGYSFTSSWIHWVKQRPGQGLEWIGYIYPSTGFTEYNQKFKDKATLTADKSSSTAYMQLSSLTSEDSAVYYCARWRDSSGYHAMDYWGQGTSVTVSS
VL: DIVLTQSPASLTVSLGQRATISCRASQSVSTSGYSYMHWYQQKPGQPPKLLIKFGSNLESGIPARFSGSGSGTDFTLNIHPVEEEDTATYYCQHSWEIPYTFGGGTKLEIK
B1: the Pre-sort % PD-1+ (of CD3+) in test [1] came to 13%; in test [2], 93%; in test [3] it was 70%.

The values are drawn from patent US20240269180A1.
